Here are results for one substance from publication PMC7694065.

For this test, the target named is recombinant Hbl B (hemolysin BL component B) with N-terminal strep tag (Bacillus cereus) (UniProt P80172).

Take “recombinant Hbl B (hemolysin BL component B) with N-terminal strep tag (from UniProt P80172 32-375) (natural protein)”: the binding of rHbl B to Vero cells (flow cytometry, mAb 1G8-Alexa 488) after 10 min heat treatment over a temperature gradient; minimum 7% FL1-positive cells at 60 °C, increase from 70 °C upwards (% FL1-positive cells) was determined as 93.
